One molecule from publication PMC9816786 (2022) can be followed below.

For the assay, the target named is T1, PCSK9 (Homo sapiens (Human), UniProt Q8NBP7).
T1 chain: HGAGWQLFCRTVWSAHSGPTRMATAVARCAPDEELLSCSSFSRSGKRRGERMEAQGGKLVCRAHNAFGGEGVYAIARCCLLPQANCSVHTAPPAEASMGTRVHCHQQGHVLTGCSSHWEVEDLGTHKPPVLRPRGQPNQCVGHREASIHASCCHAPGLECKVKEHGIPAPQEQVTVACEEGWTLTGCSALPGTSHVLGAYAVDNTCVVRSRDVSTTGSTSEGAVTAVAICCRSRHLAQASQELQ
Kind of assay: BLI; pH 7.5.

B1: CAP1 (protein)
chain: ADMQNLVERLERAVGRLEAVSHTSDMHRGYADSPSKAGAAPYVQAFDSLLAGPVAEYLKISKEIGGDVQKHAEMVHTGLKLERALLVTASQCQQPAENKLSDLLAPISEQIKEVITFREKNRGSKLFNHLSAVSESIQALGWVAMAPKPGPYVKEMNDAAMFYTNRVLKEYKDVDKKHVDWVKAYLSIWTELQAYIKEFHTTGLAWSKTGPVAKELSGLPSGPSAGSCPPPPPPCPPPPPVSTISCSYESASRSSLFAQINQGESITHALKHVSDDMKTHKNPALKAQSGPVRSGPKPFSAPKPQTSPSPKRATKKEPAVLELEGKKWRVENQENVSNLVIEDTELKQVAYIYKCVNTTLQIKGKINSITVDNCKKLGLVFDDVVGIVEIINSKDVKVQVMGKVPTISINKTDGCHAYLSKNSLDCEIVSAKSSEMNVLIPTEGGDFNEFPVPEQFKTLWNGQKLVTTVTEIAG
For orientation: Kd means the free concentration of one partner at which half of the binding sites on the other are occupied at equilibrium, for simple one-to-one binding. A higher Kd goes with lower affinity. Molecule B1 yielded a Kd of 1360 nM.
